This is an account of results in publication PMC4173154 (Genes & Development, 2014).

The target in this test is native Drosophila core histones (Drosophila, UniProt P84051 1-124; P02283 1-123; P02299 1-136; P84040 1-103). In words: co-sedimentation.

B1: recombinant Drosophila NLP, C-terminal 6-His tag (natural protein)
chain: MAEESFYGVTLTAESDSVTWDVDEDYARGQKLVIKQILLGAEAKENEFNVVEVNTPKDSVQIPIAVLKAGETRAVNPDVEFYESKVTFKLIKGSGPVYIHGHNIKDDVEVVDMEEDDEEDDVAEDEEDEHPKKRAKIENAADGKNAKNNKKK
Turning to B1, the binding result was “binds”.
